Test results: patent publication US20210246166A1 (Bayer, published 2021)
Bridge positions count the residues as written; N and C are the ends. Square brackets hold non-standard residues; d marks the D form. Ends that are not written are not given here. * marks the point of attachment. X5 = Tetrahydropyranyl‑4‑acetic acid, O=C(CC1CCOCC1)*; Pro(trans-4-F) = O=C(O)[C@@H]1C[C@@H](F)CN1; Oic = O=C(O)[C@@H]1C[C@@H]2CCCC[C@@H]2N1; Morpholine(3S-CO) = O=C(O)[C@@H]1COCCN1; Butanoyl(3,3-Me2) = CC(C)(C)CC(=O)*; Cyclopropanecarbonyl = O=C(C1CC1)*; Hyp = O=C(O)[C@@H]1C[C@@H](O)CN1; NMeI = CC[C@H](C)[C@H](NC)C(=O)O; aIle = CC[C@@H](C)[C@H](N)C(=O)O; tBuAla = CC(C)(C)C[C@H](N)C(=O)O; Pen = CC(C)(S)[C@H](N)C(=O)O; Isovaleryl = CC(C)CC(=O)*; NMeC = CN[C@@H](CS)C(=O)O; Me2Gly = CN(C)CC(=O)*; Sar = CNCC(=O)O

T1: recombinant human MASP1 active protease (amino acids 297-699, C-terminal His Tag) (human, UniProt P48740 297-699)
T1 sequence: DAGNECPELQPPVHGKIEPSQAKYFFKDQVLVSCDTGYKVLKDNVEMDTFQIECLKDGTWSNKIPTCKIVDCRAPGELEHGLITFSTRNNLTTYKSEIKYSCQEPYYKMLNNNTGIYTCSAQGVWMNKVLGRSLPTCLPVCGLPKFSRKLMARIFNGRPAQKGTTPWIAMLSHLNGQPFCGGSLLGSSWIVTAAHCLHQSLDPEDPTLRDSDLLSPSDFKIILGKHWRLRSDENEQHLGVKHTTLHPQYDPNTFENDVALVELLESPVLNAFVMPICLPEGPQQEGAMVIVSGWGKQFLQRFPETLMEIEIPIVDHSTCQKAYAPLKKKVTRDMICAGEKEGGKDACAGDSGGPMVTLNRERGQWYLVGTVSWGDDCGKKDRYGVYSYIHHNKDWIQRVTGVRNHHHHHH


What was measured:
[1] = target: T1, recombinant human MASP1 active protease …; experiment: cell-based or functional assay
[2] = target: recombinant human MASP2 active protease (amino acids 297-686, C-terminal His Tag) (human, UniProt O00187 297-686); experiment: cell-based or functional assay
recombinant human MASP2 active protease (amino acids 297-686, C-terminal His Tag), sequence (O00187 other isoform, or with tags, fused parts or gaps limits assumed): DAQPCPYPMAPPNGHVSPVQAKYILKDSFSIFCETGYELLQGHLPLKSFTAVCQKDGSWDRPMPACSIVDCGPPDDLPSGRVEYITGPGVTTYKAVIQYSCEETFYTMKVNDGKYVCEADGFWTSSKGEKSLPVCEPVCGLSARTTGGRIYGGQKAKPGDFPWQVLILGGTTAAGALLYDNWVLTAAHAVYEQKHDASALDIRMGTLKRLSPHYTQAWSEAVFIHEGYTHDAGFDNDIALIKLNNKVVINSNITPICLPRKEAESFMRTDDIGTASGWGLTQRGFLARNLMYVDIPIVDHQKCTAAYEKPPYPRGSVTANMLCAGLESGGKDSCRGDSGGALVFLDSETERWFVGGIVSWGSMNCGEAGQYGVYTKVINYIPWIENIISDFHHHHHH

Row | Binder | human MASP1 IC50 [1] [nM] | human MASP2 IC50 [2] [nM]
1 | [Sar]ICSRSLPPICIPE-OH (disulfide 3-11; N-terminus assumed; SMILES CC[C@H](C)[C@H](NC(=O)CNC)C(=O)N[C@H]1CSSC[C@@H](C(=O)N[C@H](C(=O)N2CCC[C@H]2C(=O)N[C@@H](CCC(=O)O)C(=O)O)[C@@H](C)CC)NC(=O)[C@H]([C@@H](C)CC)NC(=O)[C@@H]2CCCN2C(=O)[C@@H]2CCCN2C(=O)[C@H](CC(C)C)NC(=O)[C@H](CO)NC(=O)[C@H](CCCNC(=N)N)NC(=O)[C@H](CO)NC1=O) [Example 339: ((N-Me)G)-IC+SRSLPPIC+IPE-OH] | 26 | 640
2 | [Sar][NMeI]CSRSLPPICIPD-NH2 (disulfide 3-11; N-terminus assumed; SMILES CC[C@H](C)[C@@H]1NC(=O)[C@@H]2CCCN2C(=O)[C@@H]2CCCN2C(=O)[C@H](CC(C)C)NC(=O)[C@H](CO)NC(=O)[C@H](CCCNC(=N)N)NC(=O)[C@H](CO)NC(=O)[C@@H](NC(=O)[C@H]([C@@H](C)CC)N(C)C(=O)CNC)CSSC[C@@H](C(=O)N[C@H](C(=O)N2CCC[C@H]2C(=O)N[C@@H](CC(=O)O)C(N)=O)[C@@H](C)CC)NC1=O) [Example 340: ((N-Me)G)-((N-Me)I)-C+SRSLPPIC+IPD-NH2] | 26 | 300
3 | ICSRSLP[Oic]I[Pen]I-NH2 (disulfide 2-10; N-terminus assumed; SMILES CC[C@H](C)[C@H](N)C(=O)N[C@H]1CSSC(C)(C)[C@@H](C(=O)N[C@H](C(N)=O)[C@@H](C)CC)NC(=O)[C@H]([C@@H](C)CC)NC(=O)[C@@H]2C[C@@H]3CCCC[C@@H]3N2C(=O)[C@@H]2CCCN2C(=O)[C@H](CC(C)C)NC(=O)[C@H](CO)NC(=O)[C@H](CCCNC(=N)N)NC(=O)[C@H](CO)NC1=O) [Example 341: IC+SRSLP-(Oic)-I-(Pen)+I-NH2] | 26 | 430
4 | X5-ICSRS[tBuAla]PPICIPD-NH2 (disulfide 2-10; SMILES CC[C@H](C)[C@H](NC(=O)CC1CCOCC1)C(=O)N[C@H]1CSSC[C@@H](C(=O)N[C@H](C(=O)N2CCC[C@H]2C(=O)N[C@@H](CC(=O)O)C(N)=O)[C@@H](C)CC)NC(=O)[C@H]([C@@H](C)CC)NC(=O)[C@@H]2CCCN2C(=O)[C@@H]2CCCN2C(=O)[C@H](CC(C)(C)C)NC(=O)[C@H](CO)NC(=O)[C@H](CCCNC(=N)N)NC(=O)[C@H](CO)NC1=O) [Example 342: (Tetrahydropyranyl-4-acetic acid)-IC+SRS-((tBu)A)-PPIC+IPD-NH2] | 26 | 17
5 | AICSRS[2‑Amino‑7‑(tert-butoxy)‑7‑oxoheptanoic acid]PPI[Pen]IPD-NH2 (disulfide 3-11) [Example 344: AIC+SRS-(2-Amino-7-(tert-butoxy)-7-oxoheptanoic acid)-PPI-(Pen)+IPD-NH2] | 27 | 51
6 | ICSRS[tBuAla]PPI[Pen]I-NH2 (disulfide 2-10; N-terminus assumed; SMILES CC[C@H](C)[C@H](N)C(=O)N[C@H]1CSSC(C)(C)[C@@H](C(=O)N[C@H](C(N)=O)[C@@H](C)CC)NC(=O)[C@H]([C@@H](C)CC)NC(=O)[C@@H]2CCCN2C(=O)[C@@H]2CCCN2C(=O)[C@H](CC(C)(C)C)NC(=O)[C@H](CO)NC(=O)[C@H](CCCNC(=N)N)NC(=O)[C@H](CO)NC1=O) [Example 345: IC+SRS-((tBu)A)-PPI-(Pen)+I-NH2] | 27 | 390
7 | AICSRSLPP[aIle]CIPD-NH2 (disulfide 3-11; N-terminus assumed; SMILES CC[C@@H](C)[C@@H]1NC(=O)[C@@H]2CCCN2C(=O)[C@@H]2CCCN2C(=O)[C@H](CC(C)C)NC(=O)[C@H](CO)NC(=O)[C@H](CCCNC(=N)N)NC(=O)[C@H](CO)NC(=O)[C@@H](NC(=O)[C@@H](NC(=O)[C@H](C)N)[C@@H](C)CC)CSSC[C@@H](C(=O)N[C@H](C(=O)N2CCC[C@H]2C(=O)N[C@@H](CC(=O)O)C(N)=O)[C@@H](C)CC)NC1=O) [Example 346: AIC+SRSLPP-(allo-I)-C+IPD-NH2] | 27 | 190
8 | GICSRSLPPICI[Hyp]D-OH (disulfide 3-11; N-terminus assumed; SMILES CC[C@H](C)[C@H](NC(=O)CN)C(=O)N[C@H]1CSSC[C@@H](C(=O)N[C@H](C(=O)N2C[C@H](O)C[C@H]2C(=O)N[C@@H](CC(=O)O)C(=O)O)[C@@H](C)CC)NC(=O)[C@H]([C@@H](C)CC)NC(=O)[C@@H]2CCCN2C(=O)[C@@H]2CCCN2C(=O)[C@H](CC(C)C)NC(=O)[C@H](CO)NC(=O)[C@H](CCCNC(=N)N)NC(=O)[C@H](CO)NC1=O) [Example 348: GIC+SRSLPPIC+I-(Hyp)-D-OH] | 28 | 690
9 | [Sar]ICSRSLP[Oic]ICIPD-OH (disulfide 3-11; N-terminus assumed; SMILES CC[C@H](C)[C@H](NC(=O)CNC)C(=O)N[C@H]1CSSC[C@@H](C(=O)N[C@H](C(=O)N2CCC[C@H]2C(=O)N[C@@H](CC(=O)O)C(=O)O)[C@@H](C)CC)NC(=O)[C@H]([C@@H](C)CC)NC(=O)[C@@H]2C[C@@H]3CCCC[C@@H]3N2C(=O)[C@@H]2CCCN2C(=O)[C@H](CC(C)C)NC(=O)[C@H](CO)NC(=O)[C@H](CCCNC(=N)N)NC(=O)[C@H](CO)NC1=O) [Example 349: ((N-Me)G)-IC+SRSLP-(Oic)-IC+IPD-OH] | 9.6 | 420
10 | [Me2Gly]ICSRSLPPICIPD-NH2 (disulfide 3-11; SMILES CC[C@H](C)[C@H](NC(=O)CN(C)C)C(=O)N[C@H]1CSSC[C@@H](C(=O)N[C@H](C(=O)N2CCC[C@H]2C(=O)N[C@@H](CC(=O)O)C(N)=O)[C@@H](C)CC)NC(=O)[C@H]([C@@H](C)CC)NC(=O)[C@@H]2CCCN2C(=O)[C@@H]2CCCN2C(=O)[C@H](CC(C)C)NC(=O)[C@H](CO)NC(=O)[C@H](CCCNC(=N)N)NC(=O)[C@H](CO)NC1=O) [Example 350: ((N,N-diMe)G)-IC+SRSLPPIC+IPD-NH2] | 28 | 370
11 | XXAICSRS[tBuAla]PPI[Pen]IPD-OH (disulfide 5-13; not fully specified (N-terminus); printed as (D-(+)Biotin)-(Ahx)-AIC + SRS-((tBu)A)-PPI-(Pen) + IPD-OH) [Example 352: (D-(+)Biotin)-(Ahx)-AIC+SRS-((tBu)A)-PPI-(Pen)+IPD-OH] | 28 | 71
12 | Cyclopropanecarbonyl-ICSRS[tBuAla]PPI[NMeC]I-NH2 (disulfide 2-10; SMILES CC[C@H](C)[C@H](NC(=O)[C@@H]1CSSC[C@H](NC(=O)[C@@H](NC(=O)C2CC2)[C@@H](C)CC)C(=O)N[C@@H](CO)C(=O)N[C@@H](CCCNC(=N)N)C(=O)N[C@@H](CO)C(=O)N[C@@H](CC(C)(C)C)C(=O)N2CCC[C@H]2C(=O)N2CCC[C@H]2C(=O)N[C@@H]([C@@H](C)CC)C(=O)N1C)C(N)=O) [Example 353: (Cyclopropanecarboxylic)-IC+SRS-((tBu)A)-PPI-((N-Me)C)+I-NH2] | 28 | 50
13 | [Sar]ICSRSL[Pro(trans-4-F)]PICIPD-OH (disulfide 3-11; N-terminus assumed; SMILES CC[C@H](C)[C@H](NC(=O)CNC)C(=O)N[C@H]1CSSC[C@@H](C(=O)N[C@H](C(=O)N2CCC[C@H]2C(=O)N[C@@H](CC(=O)O)C(=O)O)[C@@H](C)CC)NC(=O)[C@H]([C@@H](C)CC)NC(=O)[C@@H]2CCCN2C(=O)[C@@H]2C[C@@H](F)CN2C(=O)[C@H](CC(C)C)NC(=O)[C@H](CO)NC(=O)[C@H](CCCNC(=N)N)NC(=O)[C@H](CO)NC1=O) [Example 354: ((N-Me)G)-IC+SRSL-((trans-4-Fluoro)P)-PIC+IPD-OH] | 29 | 510
14 | AICSRSLP[(3S-OH)P]ICIPD-NH2 (disulfide 3-11) [Example 355: AIC+SRSLP-((3S-OH)P)-IC+IPD-NH2] | 29 | 930
15 | GICSRSL[Morpholine(3S-CO)]PICIPD-OH (disulfide 3-11) [Example 357: GIC+SRSL-(Morpholine-3-carboxylic)-PIC+IPD-OH] | 31 | 1300
16 | Isovaleryl-ICSRS[tBuAla]PPI[NMeC]I-NH2 (disulfide 2-10; SMILES CC[C@H](C)[C@H](NC(=O)[C@@H]1CSSC[C@H](NC(=O)[C@@H](NC(=O)CC(C)C)[C@@H](C)CC)C(=O)N[C@@H](CO)C(=O)N[C@@H](CCCNC(=N)N)C(=O)N[C@@H](CO)C(=O)N[C@@H](CC(C)(C)C)C(=O)N2CCC[C@H]2C(=O)N2CCC[C@H]2C(=O)N[C@@H]([C@@H](C)CC)C(=O)N1C)C(N)=O) [Example 358: (Isovaleric)-IC+SRS-((tBu)A)-PPI-((N-Me)C)+I-NH2] | 31 | 19
17 | {Butanoyl(3,3-Me2)}-ICSRS[tBuAla]PPI[Pen]IP-NH2 (disulfide 2-10; SMILES CC[C@H](C)[C@H](NC(=O)CC(C)(C)C)C(=O)N[C@H]1CSSC(C)(C)[C@@H](C(=O)N[C@H](C(=O)N2CCC[C@H]2C(N)=O)[C@@H](C)CC)NC(=O)[C@H]([C@@H](C)CC)NC(=O)[C@@H]2CCCN2C(=O)[C@@H]2CCCN2C(=O)[C@H](CC(C)(C)C)NC(=O)[C@H](CO)NC(=O)[C@H](CCCNC(=N)N)NC(=O)[C@H](CO)NC1=O) [Example 359: (tert-Butylacetic acid)-IC+SRS-((tBu)A)-PPI-(Pen)+IP-NH2] | 31 | 34
